Source: article PMC10763354 (2024)

Biological target: Desulfovibrio vulgaris flagellin (Desulfovibrio vulgaris)
Experiment: MST

B1: leucine-rich repeat containing 19 (LRRC19) protein (receptor)
chain: SKREVQCNFTEKNYTLIPADIKKDVTILDLSYNQITLNGTDTRVLQTYFLLTELYLIENKVTILHNNGFGNLSSLEILNICRNSIYVIQQGAFLGLNKLKQLYLCQNKIEQLNADVFVPLRSLKLLNLQGNLISYLDVPPLFHLELITLYGNLWNCSCSLFNLQNWLNTSNVTLENENITMCSYPNSLQSYNIKTVPHKAECHSKFPSSVTEDLYIHFQPISNSIFNSSSNNLTRNSEHEPLGKSW
modifications: NT647 fluorescence dye (in the MST experiments only)
B1 gave a Kd of 1050 nM.
